# Assay results published in the nanobody polyreactivity screen of Harvey et al. (2022).
# Assay: yeast display, Sf9 membrane polyspecificity reagent, FACS + sequencing; frameworks hold sequencing errors
# In short: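 Using colony PCR, genes from sorted yeast display clones were amplified, then sequenced on MiSeq at 2 × 250 and filtered by CDR length. The clones had been stained with 10% biotinylated, detergent-solubilized Sf9 membrane reagent for 1 hour at 4 °C and sorted by FACS into low and high (top ~1%) gates on anti-HA and streptavidin fluorescence. Polyreactivity labels come from the gate of origin.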
row,Sequence,polyreactivity (PSR sort gate)
1,QVQLVESGGGLVQAGGSLRLSCAASGSIFEWYAMGLYRQAPGKETELVAAISSGGRTYYADSVKGRFTISRDNAKNTVYLQMNSLKPEDTAVYYCAGRDVDHVGGSKYYYWGQGTQVTVSS,high polyreactivity
2,QVQLVESGGGLVQAGGSLRLSCAASGSIFEWYAMGWYRQAPGKERELVAAIDISGGDTYYADSVKGRFTISHDNAKNNVYLQRNSLKPEDTAVYYCAATRPASYAAYDYWGQGTQVTVSS,high polyreactivity
3,QVQLVESGGGLVQAGGSLRLSCAASGSIFEWYAMGWYRQAPGKERELVADITYNGGSTYYADSVKGRFTISRDNAKNTVYLQMNSLKPEDTAVYYCAADYFVQVPDYYYASEYGYWGQATQVTVSS,low polyreactivity
4,QVQLVESGGGLVQAGGSLRLSCAASGSIFEWYAMGWYRQAPGKVRELVADITYNGGSTYYADSVKGRFTISRDNAKNTVYLQMNSLKPEDTAVYYCAADYFVQVPDYYYASEYGYWGQGTQVTVSS,low polyreactivity
5,QVQLVESGGGLVQAGGSLRLSCAASGSIFEYNAMGWYRQAPGKERELVAAITRGGNTYYADSVKGRFTISRDNAKNTVYLQMNSLKPEDTAVYYCAAVQWYGYPYYSWGQGTQVIVSS,low polyreactivity
6,QVQLVESGGGLVQAGGSLRLSCAASGSIFEYNDMGWYRQAPGKEREMVSAISWNGGSTYYADSVKGRFTISRDNAKNTVYLQMNSLKPEDTAVYYCAADGDPLWVASEYDSWGQGTQVTVSS,low polyreactivity
7,QVQLVESGGGLVQAGGSLRLSCAASGSIFEYYAMGWYRQAPGKEREFVAAISDNGDSTYYADSVKGRFTISRDNAKNTVYLQMNSLKPEDTAVYYCAVRKAYQYGFYYWGQGTQLTVSS,low polyreactivity
8,QVQLVESGGGLVQAGGSLRLSCAASGSIFEYYAMGWYRQAPGKERELVATITTRGGSTYYADSVKGRFTLSRDNAKNTVSLQMKCLKPEDTAVYYCNARAAYYGRGTLLRRNYWGQGTQVTVSS,high polyreactivity
9,QVQLVESGGGLVQAGGSLRLSCAASGSIFEYYTMGWYRQAPGKERELVAGISWSGGSTYYADSVKGRFTISRDNAKNTVYLQMNSLKPEDTAVYYCAAGRTGWYWDSGSTYRYGYGYWGQGTQVTVSS,high polyreactivity
10,QVQLVESGGGLVQAGGSLRLSCAASGSIFEYYTMGWYRQAPGKERELVATISRSADRTYYADSVKGRFTISRDNAKNTVYLQMNSLKPEDTAVDYCAKRYPRTTQWIYDYWGQGTQVTVSS,high polyreactivity
11,QVQLVESGGGLVQAGGSLRLSCAASGSIFFANAMGWYRPAPGKERELVATITSGGSTTYADSLKGRFTISRDNAKNTVYLQMNSLKPEDTAVYYCNADYDYGWVFYSNYDYWGQGTQVTVSS,low polyreactivity
12,QVQLVESGGGLVQAGGSLRLSCAASGSIFFANAMGWYRQAPGKERELVATITSGGSTTYADSVKGRFTISRDNAKNTVYLQMNSLKPEDTAVYYCNADYDYGWVFYSNYDYWGQGTQVTVSS,low polyreactivity
13,QVQLVESGGGLVQAGGSLRLSCAASGSIFFDYAMGWDRQAPGKERQLVAAISWTGGSTYYADSVKGRFTISRDNAKNTVYLQMNSLKPEDTAVYYCNARYYSYSSPYDYWGQGTQVTVSS,high polyreactivity
14,QVQLVESGGGLVQAGGSLRLSCAASGSIFFGNAMGWYRQAPGKERELVAAISSRGTSTYYADSVKGRFTISRDNAKNTVYLQMNSLKPEDTAVYYCNKRVRTFRGGPLAGYDYWGQGTQVTVSS,high polyreactivity
15,QVQLVESGGGLVQAGGSLRLSCAASGSIFFGNAMGWYRQAPGKERELVAAISTTGGSTYYADSVKGRFTISRDNAKNTVYLQMISLKPEDTAVYYCNADRATWWEQWWYDYWGQGTQVTVSS,low polyreactivity
16,QVQLVESGGGLVQAGGSLRLSCAASGSIFFHNAMGWYRQAPGKERELVAAITSSGGRTYYADSVKGRFTISRDNAKNTVYLQMNSLKPEDTAVYYCDASPYGFRRNYYWGQGTQVTVSS,high polyreactivity

row,Sequence,polyreactivity (PSR sort gate)
1,QVQLVESGGGLVQAGGSLRLSCAASGSIFFPNAMGWYRQAPGKERELVAAITSTSTNYADSVKGRCTISRDNAKNTVYLQMNSLKPEDTAVYYCAADGEFRRAWYEGVYWGQGTQVTVSS,low polyreactivity
2,QVQLVESGGGLVQAGGSLRLSCAASGSIFFPYAMGWYRQAPGKEREFVAAITGSGTSTYYADSVKGRFTISRDNAKNTVYLQMNSLKPEDTAVYYCNAKRDRYFYTVKYDYWGQGTQVTVSS,low polyreactivity
3,QVQLVESGGGLVQAGGSLRLSCAASGSIFFRYAMGWYRQAPGKERELVARISWGGGRTYYADSVKGRFTISRDNAKNTVYLQMNSLKPEDTAVYYCNRAYWVNPGGFDYWGQGTQVTVSS,high polyreactivity
4,QVQLVESGGGLVQAGGSLRLSCAASGSIFFSYAMGWYRPAPGKERELVAAISSGGSTYYADSVKGRFTISRDNAKNTVYLPMNSLKPEDTAVFYCAARGYRLVPVDFYYWGQGTQVTVSS,low polyreactivity
5,QVQLVESGGGLVQAGGSLRLSCAASGSIFFSYAMGWYRQAPGKERELVAAITSSVDSTYYADSVKGRFTISRDNAKNTVYLQMNSLKPEDTAVYYCAARYRSGYYRYDYWGQGTQVTVSS,low polyreactivity
6,QVQLVESGGGLVQAGGSLRLSCAASGSIFFSYAMGWYRQAPGKERELVATITTSGGRTRYADSVKGRFTISRDNAKNTVYLQMNSLKPEDTAVYYCAVRGHFFTYGYWGQGTQVTVSS,high polyreactivity
7,QVQLVESGGGLVQAGGSLRLSCAASGSIFFTYTMGWYRQAPGKERELVAAISASGGSTYYADSVKGRFTISRDNAKNTVYLQMNSLKPEDTAVYYCNARRRTSFIMYYWGQGTQVTVSS,high polyreactivity
8,QVQLVESGGGLVQAGGSLRLSCAASGSIFFVYDMGWYRQAPGKERELVAGIRWSGGRTSYADSVKGRFTISRDNAKNTVYLQMNRLKPEDAAVYYCAADPRSYFTSEYWGQGTQVTVSS,high polyreactivity
9,QVQLVESGGGLVQAGGSLRLSCAASGSIFFYNAMGWYRQAPGKERELVAAITTRGGSTYYADSVKGRFTISRDNAKNTVYLQMNSLKPEDTAVYYCARSSRGKLDYWGQGTQVTVSS,low polyreactivity
10,QVQLVESGGGLVQAGGSLRLSCAASGSIFFYNAMGWYRQAPGKERELVAAITTRGGSTYYADSVKGRFTISRDNAMNTVYLQKNSLKPEDTAVYYCTADYYWTSLAMDSWGQGTQVTVSS,low polyreactivity
11,QVQLVESGGGLVQAGGSLRLSCAASGSIFFYNTMGWYRQAPGKERELVARISRSGGSTYYADSVKGRFTISRDNAKNTVYLQMNSLKPEDTAVYYCAARSAPWRYRYYKPYYYWGQGTQVTVSS,high polyreactivity
12,QVQLVESGGGLVQAGGSLRLSCAASGSIFFYYAMGWYRQAPGKEREFVAHITSSDASTHYADSVKGRFTISRDNAKNTVYLQMNSLKPEDTAVYYCAADRYPGHRERDYWGQGTQVTVSS,low polyreactivity
13,QVQLVESGGGLVQAGGSLRLSCAASGSIFFYYAMGWYRQAPGKERELVAAITLSDGRTYYADSVKGRFTISRDNAKNTVYLQMNSLKPEDTAVYYCNADTGWYPTGARWHHYDYWGQGTQVTVSS,high polyreactivity
14,QVQLVESGGGLVQAGGSLRLSCAASGSIFGANAMGWYRQAPGKERELVAAISSNGDDTYADSVMGRFTISRDNAKNTVYLQMNSLKPEDTAVYYCAARAERVREYNYWGQGTQVTVSS,low polyreactivity
15,QVQLVESGGGLVQAGGSLRLSCAASGSIFGANVMGWYRQAPGKERELVAGITGSGGSTYADSVKGRFTISRDNAKNTVYFQMNSLKPEDTAVYYCNADTQFALVADFDYWGQGTQVTVSS,low polyreactivity
